According to article PMC11233452:

Molecular target: T1, PsrA (Pseudomonas aeruginosa PAO1) (UniProt Q9HZJ9)
T1 sequence: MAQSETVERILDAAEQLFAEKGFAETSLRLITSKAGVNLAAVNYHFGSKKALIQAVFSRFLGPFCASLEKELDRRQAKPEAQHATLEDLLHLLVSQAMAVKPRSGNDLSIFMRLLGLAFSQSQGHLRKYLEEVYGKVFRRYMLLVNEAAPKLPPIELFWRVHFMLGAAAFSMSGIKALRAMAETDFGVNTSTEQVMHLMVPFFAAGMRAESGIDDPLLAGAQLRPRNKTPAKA
Assay: EMSA

Sequence	binding
TGTGCGGTTGTGACAATTCCATGAAACGCCGACAGGCCGCCGCCATGGCCGGGTCCTCGAGCAAGCGCCACAGCGCCCCGCGCAACTCCTGCTCGCGCAACGGCACGCCCAGGCGCATCCCGCAGCCGAGCCGGACCAGCCGTTCGGCATTGTCGAACTGGTCGTGGGCACAGGGCAGCAGCACCTGCGGCACCCCCGCCGCCAAGGCTAGGCTCATGGCGCCGATACCGCCCGGATGGACCAGCCCGGCGCACGATGGCAGCAAGGCTCCCAGTGGCGCGTA (double strand) [PrhlR 11-293 bp]	no binding
CGCTTCCCTTGATCGGGTCAGGTTGCCGCTACTGTGGAAGAAGCGTCGAGGACTCGATAGATAGCGCCCGAGTGTTTCAACTTGTCTTCTGGATGACGTTTTCATCGGGGAAACCTCCCGTCGGTCAGTGAAGCGCAAGGGCTGGCGTGCGAGGGTGGAATCGGCCGCCGGCTCGCTTTCTGCGCGGCGGGCGCACGGCACGGGGAGTCGTCGTTTTGGAGGTGAGGGATGACGGCTCTGTTTCAGGA (double strand) [PmvfR 223-470 bp]	no binding
GCGCACGGCACGGGGAGTCGTCGTTTTGGAGGTGAGGGATGACGGCTCTGTTTCAGGATATTTTTATAATTATGTGAAAGAAGAGCTTATTTCAACGAAATATGTTTCATATTGCTCGTAAATTCGACGAAAAGAAAATCCGGATATTTACCGGTTATTTAACGTTAATACCAAGGGCCTAATACCAAAGTATTAACGCTGGCATGCCGGCATGTCGTGTTCGGTCGTGGAGCGAGCCGAGCCAGGAACGGTTCTAAGAAACGA (double strand) [PmvfR 17-280 bp]	no binding
TGGCGATGGGCCGACAGTGAACCCGGGGACCAGGTGTGACTGGGTATTCAGTTCGCATAAAATGTGATCTAGATCACATTTAAACGTTTGCTTACCCTCTAGGACGGGTATCGTACTAGGTGCATCAAACGCTGCGGTCTATTGTTAAGTGGGACTGAAATGTGCCTTTCCGGCACAACGCCAACTCTATAG (double strand) [PlasR 153-344 bp]	binds
CCTGTCGGCGTTTCATGGAATTGTCACAACCGCACAGTATCGCTTGCGGTAAAGCGGCCCAGGTGGTCGAACGTTGTCATAGGGAGGGGGATGCTCGATGGCTGAAGGCTGCGTCCTGAACGGTGCTGGCATAACAGATAGGGTTGCCATGATTTTGCCGTATCGGCAAGGCTGCGCGCTTGACAGCGTCATACCCCGGGCCAATTCTGCTGTGATGCATTTTATCGATCAGGGCTTACTGCAATGAGGAATGACGGAGGCTTTTTGCTGTGGTGGGACGGTTTGCGTAGCGAGATG (double strand) [PrhlR 258-544 bp]	no binding
